Source: paper PMC6591170

Molecular target: human alpha-thrombin (Homo sapiens, UniProt P00734;P00734 315-363;364-622)
Assay: ITC; ITC in PBS (10 mM phosphate, 2.7 mM KCl, 137 mM NaCl), pH 7.4, 22 °C; ODN 25 or 100 µM into thrombin 2.5 or 10 µM

Binder	Kd [nM]
GGTTGGTGTGGTTGG (structured_DNA) [TBA]	8
AA (structured_DNA, 3'-3' phosphodiester inversion joins the two listed segments covalently (both written 5' to 3'); one molecule, not a duplex) DNA 1: GGTTGGTGTGGTTGGA DNA 2: GGTTGGTGTGGTTGGA	10
